The text below walks through data of patent publication US20190160169A1 (JULIUS MAXIMILIANS UNIVERSIT T W RZBURG, published 2019).

Experiment [1] addresses recombinant mature human GDF-15 protein derived from expression in E. coli (human) (UniProt Q99988). The experiment in a line: SPR (Biorad ProteOn XPR36), GDF-15 immobilised on GLC chip, antibody as analyte.
For experiment [2], the target named is T1, recombinant mature human GDF-15 protein (derived from Baculovirus-transfected HighFive insect cells) (human, UniProt Q99988 197-308).
T1 construct: also called recombinant human GDF-15; GDF-15 derived from insect cell expression
T1 sequence: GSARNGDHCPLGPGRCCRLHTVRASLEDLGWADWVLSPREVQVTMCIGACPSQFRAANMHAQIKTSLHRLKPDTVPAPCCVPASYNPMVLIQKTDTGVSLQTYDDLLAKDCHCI
The experiment in a line: SPR (Biorad ProteOn XPR36), KD=koff/kon. From the text: (§1) For preparing the biosensors recombinant mature human GDF-15 protein was immobilized on flow cells 1 and 2. On one flow cell recombinant GDF-15 derived from Baculvirus-transfected insect cells (HighFive insect cells) and on the other recombinant protein derived from expression in E. coli was used. The GLC sensor chip was activated using Sulfo-NHS (N-Hydroxysulfosuccinimide) and EDC (1-Ethyl-3-[3-dimethylaminopropyl]carbodiimide hydrochloride) (Biorad ProteOn Amine Coupling Kit) according to the manufacturer's recommendation, the sensor surface was subsequently loaded with the proteins up to a density of about 600 RU (1 Ru=1 pg mm⁻²). The non-reacted coupling groups were then quenched by perfusion with 1M ethanolamine pH 8.5 and the biosensor was equilibrated by perfusing the chip with running buffer ([…], 150 mM NaCl, 3.4 mM EDTA, 0.005% Tween-20, pH 7.4, referred to as HBS150). […] The resulting sensogram was analyzed using the software ProteOn Manager version 3.0. […] For the association rate constant a value of 5.4±0.06×10⁵ M⁻¹ s⁻¹ (kₒₙ) and for the dissociation rate constant a value of 4.3±0.03×10⁻⁴ s⁻¹ (koff) could be determined (values are for the interaction of anti-human GDF-15 mAb-B1-23 with GDF-15 derived from insect cell expression).

In experiment [3] the target is T1, recombinant mature human GDF-15 protein …. The experiment in a line: SPR (Biorad ProteOn XPR36), GDF-15 immobilised on GLC chip, antibody as analyte, 25 °C, 1:1 Langmuir.
Source text: as §1

B1: monoclonal anti-human GDF-15 mAb-B1-23 (antibody, V domains shown)
VH: QVKLQQSGPGILQSSQTLSLTCSFSGFSLSTSGMGVSWIRQPSGKGLEWLAHIYWDDDKRYNPTLKSRLTISKDPSRNQVFLKITSVDTADTATYYCARSSYGAMDYWGQGTSVTVSS
VL: DIVLTQSPKFMSTSVGDRVSVTCKASQNVGTNVAWFLQKPGQSPKALIYSASYRYSGVPDRFTGSGSGTDFTLTISNVQSEDLAEYFCQQYNNFPYTFGGGTKLEIK
notes: also called antibody B1-23; monoclonal mouse antibody GDF-15
On to B1, for which, in experiment [1], the deviation of rate constants against GDF-15 derived from insect cells is 45% and the difference of affinity values against GDF-15 derived from insect cells is under 2 fold. In addition, the Kd (usually a measure of binding affinity in units of concentration) in experiment [2] is about 0.79 nM. In experiment [3], the koff (usually the rate constant with which the complex falls apart) amounted to 0.00043 s⁻¹ and the kon (commonly the rate constant with which the complex forms) amounted to 540000 M⁻¹ s⁻¹.
